This note sets out measurements from patent publication US20230149532A1.

Read-outs that look alike come from different tables or passages of the source.

Experiment [1] addresses ACE-2 receptor on Vero e6 cells (African green monkey (Vero e6 cells)).
Experiment [2] has the same target. The experiment can be described thus: two-color confocal microscopy, co-localization on Vero e6 cells (n=10 analyses).

On to “plant-produced recombinant H7 strain influenza HA protein”, for which, in experiment [1], the particles per field (particles per field) is 122.

In experiment [2], “angiotensin II (from UniProt P01019 25-32) (peptide)” registered a fold increase over the non-specific H7 control of 2.79 fold and a particles per field (particles per field) of 452.
